# Experimental data as given in US20210163580A1 (NATIONAL HEALTH RESEARCH INSTITUTES, published 2021).
# No end group written: not given here. *: point of attachment. Biotin = O=C1N[C@H]2[C@H](CS[C@H]2CCCCC(=O)*)N1
# Assays:
# RSPO2 [1] = target: T1, RSPO2 (UniProt Q6UXX9 22-243, limits assumed); assay: ELISA on coated antigen (BSA, RSPO1, RSPO2, RSPO3, RSPO4), absorbance 450 nm [A]
# RSPO1 [2] = target: T2, RSPO1 (UniProt Q2MKA7 21-263, limits assumed); assay: as above
# RSPO4 [3] = target: T3, RSPO4 (UniProt Q2I0M5 20-234, limits assumed); assay: as above
# [4] = target: T4, recombinant human RSPO3 protein (human, UniProt Q9BXY4 22-272); assay: BLI (Octet, ForteBio); biotinylated RSPO3 on streptavidin sensors
# T4 construct: Used biotinylated on Octet sensors, immobilised on a CM5 chip in Biacore, and coated on ELISA plates; also called hRSPO3; huRSPO3
# T4 sequence (looked up): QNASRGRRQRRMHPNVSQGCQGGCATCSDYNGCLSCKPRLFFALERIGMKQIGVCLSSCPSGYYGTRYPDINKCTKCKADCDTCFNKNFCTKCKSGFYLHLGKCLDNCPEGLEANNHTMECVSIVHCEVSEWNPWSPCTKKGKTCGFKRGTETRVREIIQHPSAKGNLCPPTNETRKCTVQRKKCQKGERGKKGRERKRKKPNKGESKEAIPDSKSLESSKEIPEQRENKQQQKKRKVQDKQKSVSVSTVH
# Procedure: The streptavidin-coated sensors were coated with 10 μg/ml of biotinylated RSPO3 as described in the handbook of ForteBio. Antibody concentrations were in the range of 0.75 and 93.8 nM. Quantitative kinetic binding analysis was performed with pH-adjusted PBS with 0.5% BSA. All steps were run at 30° C. with a continuous shaking speed at 1000 rpm.
# To assess the RSPO3-binding affinities of the antibodies, kinetics assays were performed by the Octetsystems.
# RSPO2 [5] = target: T1, RSPO2; assay: Western blot: RSPO1-4 on the blot, probed with the hybridoma antibody [B]
# RSPO1 [6] = target: T2, RSPO1; assay: as above
# RSPO4 [7] = target: T3, RSPO4; assay: as above
# [8] = target: T4, recombinant human RSPO3 protein; assay: ELISA on coated antigen (BSA, RSPO1, RSPO2, RSPO3, RSPO4), absorbance 450 nm [B]
# [9] = target: T4, recombinant human RSPO3 protein; assay: SPR (Biacore T200); hRSPO3 immobilised on CM5 chip, antibody injected, single-cycle, 1:1 model
# Procedure: FIG. 7 is a graph showing use of Biacore to measure the binding kinetics of α-RSPO3 Abs-antigen interaction. The binding sensorgrams were generated using a Biacore T200 and then fitted to a simple 1:1 interaction model. […] The association was monitored for 2 min, and the final dissociation time was 15 min hRSPO3 was immobilized on a CMS chip at 27.5 RU.
# The binding kinetics between α-RSPO3 Abs and recombinant human RSPO3 protein (hRSPO3) were performed at 25° C. using a Biacore T200 biosensor equipped with a CMS Series S Sensor Chip (GE Healthcare). […] Obtained sensorgrams were corrected by double subtracting the signal obtained on a reference surface and the signal of the running buffer. Sensograms were fit globally with BIAcore T200 evaluation software 3.0 using 1:1 binding model to yield affinity constants (KD values) for α-RSPO3 Abs. Replicate measurements were made in separate experiments, using independently prepared α-RSPO3 Abs dilution series and huRSPO3-coated chip surfaces.
# [10] = target: T4, recombinant human RSPO3 protein; assay: cell-based or functional assay
# RENKQQQKKR = target: T5, RENKQQQKKR; assay: PepSet ELISA: biotinylated 10-mer on NeutrAvidin plate, antibody 10 µg/ml, OD450 [C]
# T5 construct: member of the PepSet library m27
# T5 peptide: Biotin-SGSGRENKQQQKKR
# Excerpt: (§1) FIG. 8 is a set of graphs showing mapping of the α-RSPO3 Ab epitopes on RSPO3 protein by Pep-set.
# (§2) The deduced amino acid sequence of RSPO3 (GenBank accession no. NP_116173) was used as the reference sequence to design the PepSet library of biotinylated linear peptides that cover the mature domain of RSPO3. The 121 peptides synthesized by Mimotopes (Victoria, Australia) were 10 amino acids in length and offset by 2 residues in these two formats: Biotin-SGSG-PEPTIDE-NH2 for N-terminal peptide and Biotin-SGSG-PEPTIDE-OH for the C-terminal peptide. The peptides (1-3 mg) were dissolved in 200 microliter 80/20 DMSO/water mixture and further diluted at 1:200 in PBS containing 0.1% BSA and 0.1% sodium azide as working solution. In order to attach different biotinylated peptides on each well of the plates, plates coated with NeutrAvidin and blocked with BSA (Thermo Scientific Pierce, Rockford, Ill.) were utilized. Plates were washed three times with 1× PBS with 0.1% Tween 20 and then […] biotinylated peptide solution was applied to each well of plates. After one hour incubation at room temperature, plates were washed three times again with 1× PBST. α-RSPO3 antibodies at 10 μg/ml were then added to each well of plates and the plates were incubated with agitation for one hour. […] To detect bound anti-RSPO3 antibodies, Goat anti-human IgG-Fc-HPR was then applied to plates for one hour. After removing extra detection antibodies by washing the plates with 1× PBST, 100 μl Tetramethylbenzidine (TMB) substrate solution was added to each well for 20 minutes.
# GKKGRERKRK = target: T6, GKKGRERKRK; assay: as above
# T6 construct: member of the PepSet library m27
# T6 peptide: Biotin-SGSGGKKGRERKRK
# Excerpt: as §1, §2
# ERGKKGRERK = target: T7, ERGKKGRERK; assay: as above
# T7 construct: member of the PepSet library m27
# T7 peptide: Biotin-SGSGERGKKGRERK
# Excerpt: as §1, §2
# KGRERKRKKP = target: T8, KGRERKRKKP; assay: as above
# T8 construct: member of the PepSet library m27
# T8 peptide: Biotin-SGSGKGRERKRKKP
# Excerpt: as §1, §2
# RSPO2 [11] = target: T1, RSPO2; assay: Western blot: RSPO1-4 on the blot, probed with the hybridoma antibody [A]
# RSPO1 [12] = target: T2, RSPO1; assay: as above
# RSPO4 [13] = target: T3, RSPO4; assay: as above
# T1 sequence (Q6UXX9 22-243 limits assumed): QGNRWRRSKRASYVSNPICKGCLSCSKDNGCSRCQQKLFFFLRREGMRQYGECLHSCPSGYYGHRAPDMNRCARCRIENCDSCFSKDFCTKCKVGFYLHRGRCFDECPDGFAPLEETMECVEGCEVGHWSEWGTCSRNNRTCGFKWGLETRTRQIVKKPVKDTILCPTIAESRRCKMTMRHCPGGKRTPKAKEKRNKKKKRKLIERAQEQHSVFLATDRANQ
# T3 sequence (Q2I0M5 20-234 limits assumed): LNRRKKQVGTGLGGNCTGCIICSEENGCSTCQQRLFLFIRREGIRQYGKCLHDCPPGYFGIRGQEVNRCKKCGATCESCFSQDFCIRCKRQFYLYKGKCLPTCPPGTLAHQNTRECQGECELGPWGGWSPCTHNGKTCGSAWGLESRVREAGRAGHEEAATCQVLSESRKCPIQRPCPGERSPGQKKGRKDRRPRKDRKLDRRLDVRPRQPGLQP
# T2 sequence (Q2MKA7 21-263 limits assumed): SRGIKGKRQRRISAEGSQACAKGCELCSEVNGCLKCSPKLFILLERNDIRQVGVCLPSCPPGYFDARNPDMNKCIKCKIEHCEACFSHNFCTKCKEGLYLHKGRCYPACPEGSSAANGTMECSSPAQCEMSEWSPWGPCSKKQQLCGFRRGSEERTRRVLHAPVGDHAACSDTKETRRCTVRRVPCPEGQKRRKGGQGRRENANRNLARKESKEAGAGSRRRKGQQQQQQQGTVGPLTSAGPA
binder,measurement,setting,value
"anti-RSPO3 hybridoma antibody A4 (antibody, IgG1, V domains shown, Murine hybridoma mAb; also called clone A4; hybridoma A4) VH: QVQLQESGAELAKPGASVKMSCKASGHTLTYYWMHWVKQRPGQGLEWIGYIDPSTGYSEYNQRFEGKATLTADKSSGTVYMQLSSLTSEDSAVYYCARNGPFAYWGQGTLVTVSA VL: DNVLTQSPAIMSASPGEKVTMTCSASSSVNYMYWYQQKPGSSPRLLIYDTSKLASGVPVRFSGSGSGTSYSLTISRMEAEDAATYYCQQWSSSPLTFGVGAKLEIKR",binding result,RSPO2 [1],no binding
same,binding result,RSPO1 [2],no binding
same,binding result,RSPO4 [3],no binding
same,Kd,[4],27 nM
same,koff,[4],0.000884 s⁻¹
same,kon,[4],32700 M⁻¹ s⁻¹
"reference anti-RSPO3 antibody 131R002 (antibody, V domains shown) VH: QVQLQESGPELVKPGASVKISCKASGYTFTDYSIHWVKQNHGKSLDWIGYIYPSNGDSGYNQKFKNRATLTVDTSSSTAYLEVRRLTFEDSAVYYCATYFANYFDYWGQGTTLTVSS VL: DIVLTQSPASLAVSLGQRATISCKASQSVDYDGDSYMNWYQQKPGQPPKLLIYAASNLESGIPARFSGSGSGTDFTLNIHPVEEEDAATYYCQQSNEDPLTFGAGTKLELKR",Kd,[4],1.93 nM
same,koff,[4],0.00202 s⁻¹
same,kon,[4],1.05e+06 M⁻¹ s⁻¹
"anti-RSPO3 hybridoma antibody B1 (antibody, IgG1, V domains shown, Murine hybridoma mAb; also called clone B1) VH: QIQLQESGPGLVKPSQSLSLTCSVTGYSITSGYYWNWIRQFPGNKLEWMGYISYDGTNNYNPSLKDRISITRDTSMNQFFLKLNSVTTEDTATYYCSVLLIQYFNIWGAGTTVTVSS VL: DIQMTQSPASLSASVGETVTITCRTSESVNNFLAWFHQKQGKSPQLLVYHAKTLADGVSSRFSGSGSGTQYSLKINSLQPEDFGNYYCQHFWSIPWTFGGGTKLEIKR",binding result,RSPO2 [5],no binding
same,binding result,RSPO1 [6],no binding
same,binding result,RSPO4 [7],no binding
same,binding result,[8],binds
"rosmantuzumab (131R010) (antibody, V domains shown) VH: QVQLVQSGAEVKKPGASVKVSCKASGYTFTDYSIHWVRQAPGQGLEWIGYIYPSNGDSGYNQKFKNRVTMTRDTSTSTAYMELSRLRSEDTAVYYCATYFANNFDYWGQGTTLTVSS VL: DIQMTQSPSSLSASVGDRVTITCKASQSVDYDGDSYMNWYQQKPGKAPKLLIYAASNLESGVPSRFSGSGSGTDFTLTISPVQAEDFATYYCQQSNEDPLTFGAGTKLELK",Kd,[9],0.02 nM
same,koff,[9],0.000181 s⁻¹
same,kon,[9],9.4e+06 M⁻¹ s⁻¹
same,"IC50 in the WNT reporter assay (MDA-MB436 TCF/LEF-Luc, Wnt3a plus hRSPO3)",[10],58.7 nM
"anti-RSPO3 hybridoma antibody A6 (antibody, IgG2a, V domains shown, Murine hybridoma mAb; also called clone A6; hybridoma A6) VH: QVQLQQSGAEIVRSGASVKLSCTASGFSITEYYIHWVKQRPDQGLEWIGMIDPENGDTDYAPKFQGKATMTADTSSNTVNLQLSSLTSEDTAVYYCHGPGPLEYWGQGTTLTVSS VL: DIVMTQSPLSLPVSLGDQASISCRSSQSIVHSNGNTYLEWYLQKPGQSPNLLIYRVSNRFSGVPDRFNGSGSGTDFTLKISRVEPEDLGVYSCFQASHVPYTFGGGTKLEIKR",binding result,RENKQQQKKR,binds
same,binding result,GKKGRERKRK,binds
same,binding result,ERGKKGRERK,binds
same,binding result,KGRERKRKKP,binds
same,Kd,[4],10.4 nM
same,koff,[4],0.0025 s⁻¹
same,kon,[4],241000 M⁻¹ s⁻¹
same,binding result,RSPO2 [11],no binding
same,binding result,RSPO1 [12],no binding
same,binding result,RSPO4 [13],no binding
